Measured values reported in patent US20250110130.

Columns and labels:
[1] = tested on: Probe #411
[2] = tested on: Probe #387
[3] = tested on: Probe #349
[4] = tested on: Probe #554
[5] = tested on: Probe #417
[6] = tested on: Probe #117
[7] = tested on: Probe #263

Sequence of MMP2 (P08253 110-660): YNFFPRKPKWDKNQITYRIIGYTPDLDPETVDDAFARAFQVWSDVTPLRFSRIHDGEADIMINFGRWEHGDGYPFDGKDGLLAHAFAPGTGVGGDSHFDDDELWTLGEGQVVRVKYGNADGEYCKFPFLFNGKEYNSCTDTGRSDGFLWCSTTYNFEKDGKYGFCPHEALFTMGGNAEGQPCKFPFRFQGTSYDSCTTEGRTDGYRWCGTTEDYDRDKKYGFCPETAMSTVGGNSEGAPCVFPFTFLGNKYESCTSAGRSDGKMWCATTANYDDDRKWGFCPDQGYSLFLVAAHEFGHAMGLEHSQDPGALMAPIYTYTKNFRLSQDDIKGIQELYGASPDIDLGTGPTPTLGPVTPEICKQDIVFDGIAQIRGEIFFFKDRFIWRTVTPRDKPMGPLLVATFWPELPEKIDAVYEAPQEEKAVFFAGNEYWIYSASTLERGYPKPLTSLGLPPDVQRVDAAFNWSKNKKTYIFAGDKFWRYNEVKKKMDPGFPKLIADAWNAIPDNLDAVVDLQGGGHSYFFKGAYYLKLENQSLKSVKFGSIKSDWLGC
Sequence of MMP1 (P03956 100-469): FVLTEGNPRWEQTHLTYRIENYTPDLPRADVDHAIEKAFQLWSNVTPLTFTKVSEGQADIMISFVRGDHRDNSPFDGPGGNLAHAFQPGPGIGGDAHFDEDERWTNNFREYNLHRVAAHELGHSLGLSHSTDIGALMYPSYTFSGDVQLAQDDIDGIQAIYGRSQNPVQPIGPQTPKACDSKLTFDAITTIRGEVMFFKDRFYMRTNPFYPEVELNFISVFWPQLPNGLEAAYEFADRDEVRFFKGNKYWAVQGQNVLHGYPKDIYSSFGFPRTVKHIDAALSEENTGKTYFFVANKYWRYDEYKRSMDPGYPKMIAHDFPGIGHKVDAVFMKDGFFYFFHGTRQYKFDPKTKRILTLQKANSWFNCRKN
Sequence of MMP20 (O60882 108-483): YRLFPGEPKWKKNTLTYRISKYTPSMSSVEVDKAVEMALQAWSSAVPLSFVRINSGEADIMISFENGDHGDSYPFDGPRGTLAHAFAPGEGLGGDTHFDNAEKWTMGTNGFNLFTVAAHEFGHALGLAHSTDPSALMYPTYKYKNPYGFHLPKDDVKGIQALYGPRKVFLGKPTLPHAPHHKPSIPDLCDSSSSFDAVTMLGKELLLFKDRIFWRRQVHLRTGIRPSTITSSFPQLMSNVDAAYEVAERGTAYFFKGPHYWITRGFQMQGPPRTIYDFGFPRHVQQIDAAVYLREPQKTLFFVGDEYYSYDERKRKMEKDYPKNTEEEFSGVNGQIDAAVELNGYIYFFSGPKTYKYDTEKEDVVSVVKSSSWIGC

In the case of DPP4, the “fluorescence read of probe cleavage, recombinant protease assay” value (“fluorescence read of probe cleavage” for short) [1] is reported as “Probe #411 sensed DPP4 (FIG. 55B)”, the “fluorescence read of probe cleavage” value [2] is reported as “Probe #387 sensed DPP4 (FIG. 55G)” and the “fluorescence read of probe cleavage” value [3] is reported as “Probe #349 sensed MMP2 and DPP4 (FIG. 55A)”. For the same substance, the “fluorescence read of probe cleavage” value [4] was “Probe #554 sensed MMP1, MMP2, MMP13, MMP14, and DPP4 (FIG. 55F)”.

For MMP1, the “fluorescence read of probe cleavage” value [5] was “Probe #417 sensed MMP1, MMP2, MMP8, MMP13, and MMP14 (FIG. 55C)” and the “fluorescence read of probe cleavage” value [4] was “Probe #554 sensed MMP1, MMP2, MMP13, MMP14, and DPP4 (FIG. 55F)”.

In the case of MMP2, the “fluorescence read of probe cleavage” value [3] is reported as “Probe #349 sensed MMP2 and DPP4 (FIG. 55A)”, the “fluorescence read of probe cleavage” value [5] is reported as “Probe #417 sensed MMP1, MMP2, MMP8, MMP13, and MMP14 (FIG. 55C)” and the “fluorescence read of probe cleavage” value [6] is reported as “Probe #117 sensed MMP2 and MMP20 (FIG. 55D)”. The “fluorescence read of probe cleavage” value [4] was “Probe #554 sensed MMP1, MMP2, MMP13, MMP14, and DPP4 (FIG. 55F)”.

MMP8 was tested, and the “fluorescence read of probe cleavage” value [5] was “Probe #417 sensed MMP1, MMP2, MMP8, MMP13, and MMP14 (FIG. 55C)”.

MMP13 was tested, and the “fluorescence read of probe cleavage” value [7] was “Probe #263 sensed MMP13 (FIG. 55E)”, the “fluorescence read of probe cleavage” value [5] was “Probe #417 sensed MMP1, MMP2, MMP8, MMP13, and MMP14 (FIG. 55C)” and the “fluorescence read of probe cleavage” value [4] was “Probe #554 sensed MMP1, MMP2, MMP13, MMP14, and DPP4 (FIG. 55F)”.

For MMP14, the “fluorescence read of probe cleavage” value [5] was “Probe #417 sensed MMP1, MMP2, MMP8, MMP13, and MMP14 (FIG. 55C)” and the “fluorescence read of probe cleavage” value [4] was “Probe #554 sensed MMP1, MMP2, MMP13, MMP14, and DPP4 (FIG. 55F)”.

In the case of MMP20, the “fluorescence read of probe cleavage” value [6] is reported as “Probe #117 sensed MMP2 and MMP20 (FIG. 55D)”.
